Data on 2 molecules can be found in patent US6767538B2, “Recombinant antibacterial group IIA phospholipase A2 and methods of use thereof” (New York University, priority 1999, dated 2004).

Residue numbers refer to the chain shown, from its start. Names may count otherwise.

In test [1] the test system is S. aureus RN450 and two clinical isolates, strains 5A (MRSA) and 18. As to the kind of experiment: Bactericidal activity toward S. aureus RN450 and clinical isolates 5A and 18 in 70% pooled human sera. The test is classed as cell-based, Staphylococcus aureus. The settings on record: FIGS. 4 and 5; each of several strains; laboratory medium and 70% human sera, 90 minutes. The procedure:
S. aureus RN450 and two clinical isolates, strains 5A (MRSA) and 18 (10^7/ml were incubated with 1-500 ng/ml of each Group IIA PLA2 at 37° C. for 90 minutes in 70% (v/v) pooled human sera diluted in Hanks' balanced salts solution and buffered with 10 mM HEPES, pH7.4.

The subject of another test is S. aureus RN450. Briefly: Bactericidal activity toward S. aureus RN450 in RPMI-1640 medium. In kind it is cell-based, Staphylococcus aureus. As to conditions: FIG. 4, 10^6/ml, 1-500 ng/ml, 60 minutes. The procedure: The bactericidal activity of wild-type human and recombinant mutant human and rabbit Group IIA PLA2s against Staphylococcus aureus 52A (10^6 per ml)was determined. S. aureus was incubated with 0.01-100 nM of each Group IIA PLA2 and incubated at 37° C. for 2 hours in RPMI-1640 medium containing 10 mM HEPES, pH 7.4 and 1% (w/v) albumin. After incubation, bacterial viability was determined by measuring the colony forming ability of the bacteria in trypticase soy agar. Bacterial colonies were enumerated after 18-24 hours at 37° C. The results are expressed as the percentage of the colony forming units (CFU) of the original bacterial inoculum (i.e. at T=0).
S. aureus RN450 (10^6/ml) was incubated with 1-500 ng/ml of each Group IIA PLA2 at 37° C. for 60 minutes in RPMI-1640 medium containing 10 mM HEPES, pH 7.4 and 1% (w/v) albumin. Bacterial viability was determined as in Example 3.

Another test relates to S. aureus. Briefly: Antibacterial activity by colony-forming ability of susceptible bacteria. The test is classed as cell-based, Staphylococcus aureus. The procedure: According to the present invention, the mutant human Group IIA PLA2 of the present invention is characterized by bactericidal activity against gram positive bacteria, such as S. aureus (see Example 3). Antibacterial activity of mutant human Group IIA PLA2 may be quantified by measuring the colony-forming ability of susceptible bacteria that have been incubated with or without increasing amounts of mutant human Group IIA PLA2. Typically, a suspension of 10^6 bacteria/ml (e.g., S. aureus) is exposed to 1-500 ng/ml of mutant human Group IIA PLA2 for 60-90 minutes at 37° C., after which the cells are mixed with molten agar and plated. After overnight growth, bacterial colonies are compared between mutant Group IIA PLA2-treated and untreated cultures.

For test [2], the system named is Reynolds strain of Staphylococcus aureus. Briefly: Efficacy of administered mutant PLA2 against S. aureus infection in vivo (i.p. infection in mice). Details: species or system CD/1 mice. The method, then:
Bacteria: Reynolds strain of Staphylococcus aureus (encapsulated; grown overnight on Columbia agar to maximize encapsulation as in experiments shown in Example 6).
Administration of bacteria: 2×10^7/ml in 0.2 ml of sterile RPMI supplemented with 10 mM HEPES (pH 7.4) and 1% bovine serum albumin. Intraperitoneal (i.p.) inoculation.
Adminstration of PLA2: 15 μg/0.2 ml of above medium i.p. approx. 10-15 min after inoculation of bacteria. Control animals received medium alone. Enzyme administered was Mutant [G72K.T103K] Group IIA PLA 2.
a) @ 30, 60, 120, and 240 min after infection, blood samples taken from tail vein from each of 4 animals in control and PLA2-treated groups. There were a total of 16 animals in each group; each animal was bled only once in this time period. Levels of bacteremia were assessed by measurement of bacterial CFU in blood.
b) @ 1 day after infection, 8 animals from each group were sacrificed. Blood was collected again to measure bacteremia and the peritoneal cavity was washed and inspected to look macroscopically for abscesses (none seen) and measure intraperitoneal bacteria by assay of CFU.
c) @ 6 days after infection, the remaining 8 animals from each group were sacrificed and infection in blood and peritoneal cavity was measured as above (still no abscesses seen). This animal model produces local and disseminated infection in control animals that is eventually self-limiting. The level of metastatic infection is greatest at approx. 6 days. In addition, kidneys were excised, weighed (no significant difference between animals within and between treatment groups) and homogenized to facilitate assay of bacterial CFU within infected kidney (i.e. representing metastatic infection).

The subject of another test is Staphylococcus aureus. As to conditions: 100 ng/ml in biological fluids; 10^6 S. aureus cells/ml, incl. multi-drug resistant clinical isolates; cited from earlier work.

B1: mutant human Group IIA PLA2: recombinant double mutant G72K.T103K human Group IIA phospholipase A2, protein SEQ. ID. NO. 2, expressed in E. coli (protein)
chain: NLVNFHRLIKLTTGKEAALSYGFYGCHCGVGGRGSPKDATDRCCVTHDCCYKRLEKRGCGTKFLSYKFSNSKSRITCAKQDSCRSQLCECDKAAATCFARNKKTYNKKYQYYSNKHCRGSTPRC
As to B1, in test [1], the “activity compared with wild-type human Group IIA PLA2” value is given as “significantly more active” and the “activity compared with wild-type rabbit enzyme” value was “essentially as active”. Besides, in the test with S. aureus RN450, the “antibacterial activity compared with wild-type human Group IIA PLA2” value is recorded as “increased antibacterial activity” and the “bactericidal activity compared with WT rabbit Group IIA PLA2” value is “nearly equivalent”. The “antibacterial activity relative to human WT homologue” value in the test with S. aureus turned out to be 10 ×. Also, in test [2] (6 days after infection, controls two of 16), the abscesses seen result is recorded as “none were seen”. The “treatment of S. aureus infection in vivo” value in test [2] (Example 7) is recorded as “effective”. For the same molecule, the “S. aureus bacteremia (CFU in blood)” value in test [2] (FIG. 10, 15 μg i.p., 30, 60, 120, 240 min after infection) is “reduces”. The “metastatic kidney infection caused by S. aureus (CFU in kidney)” value in test [2] (FIG. 11, 15 μg i.p., 6 days after infection) is listed as “reduces”.

B2: wild-type human Group IIA PLA2: wild-type human Group IIA 14 kDa phospholipase A2, comparator enzyme (protein, UniProt P14555 21-144, looked up)
Phospholipase A2, membrane …: B1 chain with L8M, K72G, K103T
With B2, in the test on Staphylococcus aureus, the “S. aureus cells killed” value is “greater than 99%”.
